This is an account of results in paper PMC6555819, “Comprehensive study of nuclear receptor DNA binding provides a revised framework for understanding receptor specificity”.

The target of one data set is PXR:RXRa (Homo sapiens, UniProt O75469;P19793 full;full). The data set can be described thus: no ligand; PBM; 270 nM : 90 nM RXRa; PBS pH 7.4, 2% milk, 0.02% Triton X-100, 1 mM DTT, BSA, 0.4 mg/ml salmon testes DNA. The following applies: tags: His kept;His cleaved; copies: 1;1; label: surface-attached array probe. Summed up: (§1)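 Binding buffer was PBS pH 7.4 with 2% milk, 0.02% Triton X-100, 1 mM DTT, 0.2 mg/mL BSA and 0.4 mg/ml salmon testes DNA. In it, ligand-free nuclear receptor dimers were incubated 1 h on custom Agilent 4×180K protein-binding microarrays carrying double-stranded probes. Antibodies against each partner (one per run) detected binding, and z-scores were calculated against random background probes after regression normalization of scanned fluorescence.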

For the next data set, the target named is FXR:RXRa (Homo sapiens, UniProt Q96RI1;P19793 full;full). Described as above. To be noted: tags: His kept;His cleaved; copies: 1;1; label: surface-attached array probe. In outline:
as §1

The target of the next data set is RARb:RXRa (Homo sapiens, UniProt P10826;P19793 full;full). The description is as above. To be noted: tags: His kept;His cleaved; copies: 1;1; label: surface-attached array probe. Summed up: as §1
A further data set has as its target PPARa:RXRa (Homo sapiens, UniProt Q07869;P19793 full;full). The description is as above. To be noted: tags: GST kept;His cleaved; copies: 1;1; label: surface-attached array probe. Summed up: as §1
Another data set addresses LXRb:RXRa (Homo sapiens, UniProt P55055;P19793 full;full). The data set is described as above. The following applies: tags: His kept;His cleaved; copies: 1;1; label: surface-attached array probe. In outline: as §1
The next data set has as its target RARg:RXRa (Homo sapiens, UniProt P13631;P19793 full;full). The description is as above. The following applies: tags: His kept;His cleaved; copies: 1;1; label: surface-attached array probe. In outline:
as §1

The next data set has as its target VDR:RXRa (Homo sapiens, UniProt P11473;P19793 full;full). The data set is described as above. To be noted: tags: His kept;His cleaved; copies: 1;1; label: surface-attached array probe. In outline: as §1
The next data set concerns the target LXRa:RXRa (Homo sapiens, UniProt Q13133;P19793 full;full). The data set is described as above. The following applies: tags: His kept;His cleaved; copies: 1;1; label: surface-attached array probe. In outline:
as §1

A further data set has as its target RXRa (Homo sapiens, UniProt P19793). The data set can be described thus: no ligand; PBM; 180 nM; PBS pH 7.4, 2% milk, 0.02% Triton X-100, 1 mM DTT, BSA, 0.4 mg/ml salmon testes DNA. To be noted: tags: His cleaved; chain copies: 2; label: surface-attached array probe.

Chain of PXR:RXRa (O75469 whole entry, chain 1 of 2): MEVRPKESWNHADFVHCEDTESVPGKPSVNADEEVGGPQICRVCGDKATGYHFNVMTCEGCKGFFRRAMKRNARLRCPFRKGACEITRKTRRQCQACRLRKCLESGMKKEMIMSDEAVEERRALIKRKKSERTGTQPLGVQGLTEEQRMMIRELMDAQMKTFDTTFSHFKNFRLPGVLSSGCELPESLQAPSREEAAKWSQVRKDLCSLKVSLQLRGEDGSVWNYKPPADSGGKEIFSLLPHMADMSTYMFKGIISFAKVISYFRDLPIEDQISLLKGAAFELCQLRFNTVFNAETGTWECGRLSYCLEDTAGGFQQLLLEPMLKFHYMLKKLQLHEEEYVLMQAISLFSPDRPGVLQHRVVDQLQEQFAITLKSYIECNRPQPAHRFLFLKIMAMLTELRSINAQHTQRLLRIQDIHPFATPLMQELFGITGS
Chain of PXR:RXRa (P19793 whole entry, chain 2 of 2): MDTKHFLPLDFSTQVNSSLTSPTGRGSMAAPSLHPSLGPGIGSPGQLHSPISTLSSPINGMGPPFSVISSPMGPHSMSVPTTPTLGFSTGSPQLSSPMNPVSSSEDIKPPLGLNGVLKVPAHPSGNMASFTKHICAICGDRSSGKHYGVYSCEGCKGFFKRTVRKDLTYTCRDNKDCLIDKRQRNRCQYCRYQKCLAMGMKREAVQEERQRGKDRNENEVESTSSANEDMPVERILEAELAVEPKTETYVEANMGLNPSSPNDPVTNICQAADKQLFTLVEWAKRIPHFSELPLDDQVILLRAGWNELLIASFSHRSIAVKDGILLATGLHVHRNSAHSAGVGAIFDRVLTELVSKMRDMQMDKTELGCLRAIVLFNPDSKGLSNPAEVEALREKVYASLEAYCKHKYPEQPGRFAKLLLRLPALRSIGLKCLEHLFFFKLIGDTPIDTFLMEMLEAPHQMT
Chain of LXRa:RXRa (Q13133 whole entry, chain 1 of 2): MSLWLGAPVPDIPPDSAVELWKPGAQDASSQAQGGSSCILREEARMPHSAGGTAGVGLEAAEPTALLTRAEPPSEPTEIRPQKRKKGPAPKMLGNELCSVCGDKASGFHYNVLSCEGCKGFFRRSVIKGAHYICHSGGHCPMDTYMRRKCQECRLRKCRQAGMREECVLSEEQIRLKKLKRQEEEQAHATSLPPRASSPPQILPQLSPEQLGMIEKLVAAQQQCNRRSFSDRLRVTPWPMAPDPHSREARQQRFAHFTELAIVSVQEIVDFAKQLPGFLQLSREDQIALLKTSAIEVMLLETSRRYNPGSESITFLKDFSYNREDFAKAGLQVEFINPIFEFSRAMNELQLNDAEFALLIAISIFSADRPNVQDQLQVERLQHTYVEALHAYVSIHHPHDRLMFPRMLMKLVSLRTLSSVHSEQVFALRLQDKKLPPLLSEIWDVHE
Chain of LXRa:RXRa (P19793 whole entry, chain 2 of 2): as the sequence (P19793 whole entry, chain 2 of 2) above
Chain of LXRb:RXRa (P55055 whole entry, chain 1 of 2): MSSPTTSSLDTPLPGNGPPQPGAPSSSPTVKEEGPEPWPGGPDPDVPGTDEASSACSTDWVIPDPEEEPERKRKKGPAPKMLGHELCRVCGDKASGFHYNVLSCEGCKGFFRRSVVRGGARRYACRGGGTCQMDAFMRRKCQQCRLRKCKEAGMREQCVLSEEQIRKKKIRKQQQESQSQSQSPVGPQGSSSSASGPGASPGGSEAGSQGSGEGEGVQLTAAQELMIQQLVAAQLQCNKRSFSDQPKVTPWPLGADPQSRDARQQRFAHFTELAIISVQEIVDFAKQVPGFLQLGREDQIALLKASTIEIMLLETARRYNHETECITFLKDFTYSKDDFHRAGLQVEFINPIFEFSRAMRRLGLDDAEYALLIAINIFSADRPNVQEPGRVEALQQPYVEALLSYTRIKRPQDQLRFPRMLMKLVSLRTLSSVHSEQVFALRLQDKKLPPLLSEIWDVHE
Chain of LXRb:RXRa (P19793 whole entry, chain 2 of 2): as the sequence (P19793 whole entry, chain 2 of 2) above
Chain of PPARa:RXRa (Q07869 whole entry, chain 1 of 2): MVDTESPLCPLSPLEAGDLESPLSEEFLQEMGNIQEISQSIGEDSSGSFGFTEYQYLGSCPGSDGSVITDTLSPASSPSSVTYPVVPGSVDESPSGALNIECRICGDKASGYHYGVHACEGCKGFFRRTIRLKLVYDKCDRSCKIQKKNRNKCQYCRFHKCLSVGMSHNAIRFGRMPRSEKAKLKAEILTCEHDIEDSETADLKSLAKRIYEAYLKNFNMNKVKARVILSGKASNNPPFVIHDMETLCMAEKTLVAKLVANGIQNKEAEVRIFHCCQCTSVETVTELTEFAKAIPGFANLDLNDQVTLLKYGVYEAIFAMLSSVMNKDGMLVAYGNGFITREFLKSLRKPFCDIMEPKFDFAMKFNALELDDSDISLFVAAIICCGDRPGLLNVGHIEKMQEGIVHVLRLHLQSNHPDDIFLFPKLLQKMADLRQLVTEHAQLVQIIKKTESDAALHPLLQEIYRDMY
Chain of PPARa:RXRa (P19793 whole entry, chain 2 of 2): as the sequence (P19793 whole entry, chain 2 of 2) above
Chain of VDR:RXRa (P11473 whole entry, chain 1 of 2): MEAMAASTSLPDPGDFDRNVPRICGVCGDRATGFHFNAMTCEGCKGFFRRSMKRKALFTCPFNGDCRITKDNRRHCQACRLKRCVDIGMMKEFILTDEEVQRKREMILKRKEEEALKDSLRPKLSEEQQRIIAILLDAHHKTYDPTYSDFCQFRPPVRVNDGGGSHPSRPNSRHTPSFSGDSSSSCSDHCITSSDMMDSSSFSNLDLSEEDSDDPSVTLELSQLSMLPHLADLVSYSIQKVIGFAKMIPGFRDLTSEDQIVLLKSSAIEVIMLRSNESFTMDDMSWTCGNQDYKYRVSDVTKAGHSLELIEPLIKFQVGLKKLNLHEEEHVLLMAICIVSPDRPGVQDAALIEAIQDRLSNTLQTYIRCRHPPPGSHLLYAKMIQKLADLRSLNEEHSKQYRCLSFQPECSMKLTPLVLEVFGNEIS
Chain of VDR:RXRa (P19793 whole entry, chain 2 of 2): as the sequence (P19793 whole entry, chain 2 of 2) above
Chain of FXR:RXRa (Q96RI1 whole entry, chain 1 of 2): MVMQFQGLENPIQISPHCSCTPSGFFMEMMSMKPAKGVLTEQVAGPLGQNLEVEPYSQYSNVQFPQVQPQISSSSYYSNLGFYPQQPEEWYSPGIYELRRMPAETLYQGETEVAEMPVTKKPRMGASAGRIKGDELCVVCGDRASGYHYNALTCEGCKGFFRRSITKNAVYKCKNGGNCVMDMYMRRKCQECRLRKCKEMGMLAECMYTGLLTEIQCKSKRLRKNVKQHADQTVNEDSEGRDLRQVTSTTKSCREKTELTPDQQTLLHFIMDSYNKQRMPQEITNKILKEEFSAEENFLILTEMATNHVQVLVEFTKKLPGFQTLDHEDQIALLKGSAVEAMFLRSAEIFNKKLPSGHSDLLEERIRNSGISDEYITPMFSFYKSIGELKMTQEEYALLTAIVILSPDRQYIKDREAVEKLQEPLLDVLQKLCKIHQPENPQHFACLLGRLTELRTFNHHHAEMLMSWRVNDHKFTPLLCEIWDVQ
Chain of FXR:RXRa (P19793 whole entry, chain 2 of 2): as the sequence (P19793 whole entry, chain 2 of 2) above
Chain of RXRa (P19793 whole entry): as the sequence (P19793 whole entry, chain 2 of 2) above
Chain of RARb:RXRa (P10826 whole entry, chain 1 of 2): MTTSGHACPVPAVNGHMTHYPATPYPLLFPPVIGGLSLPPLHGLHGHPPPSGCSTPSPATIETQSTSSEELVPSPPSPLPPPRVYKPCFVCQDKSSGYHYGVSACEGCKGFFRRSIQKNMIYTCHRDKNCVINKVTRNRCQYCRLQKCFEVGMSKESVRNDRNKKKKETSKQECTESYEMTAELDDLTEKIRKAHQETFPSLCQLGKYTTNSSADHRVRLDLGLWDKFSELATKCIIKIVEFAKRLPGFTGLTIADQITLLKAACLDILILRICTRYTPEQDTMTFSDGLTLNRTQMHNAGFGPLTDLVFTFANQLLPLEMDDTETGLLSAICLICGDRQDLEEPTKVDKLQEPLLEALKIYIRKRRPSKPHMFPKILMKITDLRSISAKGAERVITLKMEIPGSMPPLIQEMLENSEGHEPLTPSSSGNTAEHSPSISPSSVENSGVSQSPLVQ
Chain of RARb:RXRa (P19793 whole entry, chain 2 of 2): as the sequence (P19793 whole entry, chain 2 of 2) above
Chain of RARg:RXRa (P13631 whole entry, chain 1 of 2): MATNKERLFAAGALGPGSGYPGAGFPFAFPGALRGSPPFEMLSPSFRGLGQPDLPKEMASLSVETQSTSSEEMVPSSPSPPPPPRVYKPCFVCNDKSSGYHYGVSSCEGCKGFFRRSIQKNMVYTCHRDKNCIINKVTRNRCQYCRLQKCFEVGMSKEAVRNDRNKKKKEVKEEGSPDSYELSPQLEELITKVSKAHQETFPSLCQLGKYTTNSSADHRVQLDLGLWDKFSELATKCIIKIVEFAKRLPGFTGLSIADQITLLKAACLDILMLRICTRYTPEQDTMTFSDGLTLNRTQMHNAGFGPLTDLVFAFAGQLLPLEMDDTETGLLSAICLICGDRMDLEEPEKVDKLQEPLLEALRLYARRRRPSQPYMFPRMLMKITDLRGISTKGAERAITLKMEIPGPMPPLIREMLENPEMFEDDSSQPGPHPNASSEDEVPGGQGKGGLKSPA
Chain of RARg:RXRa (P19793 whole entry, chain 2 of 2): as the sequence (P19793 whole entry, chain 2 of 2) above

B1: NRC3_wobSeed50_DR2_C25T_o1 (dsDNA)
DNA 1: GCCCTAGTTGGTCAGGAGGTCACATACCGGATATGAGCGATTGACAGCGTAGAATGAAGG
DNA 2: CCTTCATTCTACGCTGTCAATCGCTCATATCCGGTATGTGACCTCCTGACCAACTAGGGC
Consider B1, for which the binding signal in the data set with PXR:RXRa is 3.69 PBM z-score against 500 random probes.

B2: NRC3_wobSeed89_DR3_G16T_o1 (dsDNA)
DNA 1: GCCTATGTAGGTTAATGGGGTCATTCAGTTTGAAAGGCGATTGACAGCGTAGAATGAAGG
DNA 2: CCTTCATTCTACGCTGTCAATCGCCTTTCAAACTGAATGACCCCATTAACCTACATAGGC
Take B2: in the data set with PXR:RXRa, the binding signal was 6.66 PBM z-score against 500 random probes.

B3: NRC3_wobSeed37_DR1_C7T_o1 (dsDNA)
DNA 1: GCCGTCTAAGGTCAAAGGTCAGTGAAGAGATGACGGGCGATTGACAGCGTAGAATGAAGG
DNA 2: CCTTCATTCTACGCTGTCAATCGCCCGTCATCTCTTCACTGACCTTTGACCTTAGACGGC
Take B3: the binding signal in the data set with PXR:RXRa was 7.41 PBM z-score against 500 random probes.

B4: NRC3_wobSeed21_DR0_A7T_o1 (dsDNA)
DNA 1: GCCGTCTAAGTTCAAGGTAACGTAACAGAAAGCAGCGCGATTGACAGCGTAGAATGAAGG
DNA 2: CCTTCATTCTACGCTGTCAATCGCGCTGCTTTCTGTTACGTTACCTTGAACTTAGACGGC
Take B4: in the data set with PXR:RXRa, the binding signal is 3.59 PBM z-score against 500 random probes.

B5: NRC3_wobSeed142_DR5_G22T_o1 (dsDNA)
DNA 1: GCATACCAAGGTGATCGTGAGTTCGTTGATACTAACGCGATTGACAGCGTAGAATGAAGG
DNA 2: CCTTCATTCTACGCTGTCAATCGCGTTAGTATCAACGAACTCACGATCACCTTGGTATGC
Consider B5, for which, in the data set with PXR:RXRa, the binding signal was 3.5 PBM z-score against 500 random probes.

B6: NRC3_wobSeed138_DR5_C7A_o1 (dsDNA)
DNA 1: GCGATAAAGGGTCAGCTAGAGGCCAGAGTATGGAAAGCGATTGACAGCGTAGAATGAAGG
DNA 2: CCTTCATTCTACGCTGTCAATCGCTTTCCATACTCTGGCCTCTAGCTGACCCTTTATCGC
Turning to B6, the binding signal with PXR:RXRa is 3.54 PBM z-score against 500 random probes.

B7: NRC3_wobSeed25_DR1_A6G_o1 (dsDNA)
DNA 1: GCCAAGCTAGGTCAAAGGTCAAAGTCGAGCCAACCAGCGATTGACAGCGTAGAATGAAGG
DNA 2: CCTTCATTCTACGCTGTCAATCGCTGGTTGGCTCGACTTTGACCTTTGACCTAGCTTGGC
B7: the binding signal with PXR:RXRa is 7.42 PBM z-score against 500 random probes.

B8: NRC3_wobSeed45_DR1_A8G_o1 (dsDNA)
DNA 1: GCTGTCAGAGTTCAAAGGTAACGTAAGTATCCACACGCGATTGACAGCGTAGAATGAAGG
DNA 2: CCTTCATTCTACGCTGTCAATCGCGTGTGGATACTTACGTTACCTTTGAACTCTGACAGC
As for B8, the binding signal with PXR:RXRa is 6.41 PBM z-score against 500 random probes.

B9: NRC3_wobSeed137_DR5_A5G_o1 (dsDNA)
DNA 1: GCATGTGTAGGTTACATCCGGGTCATTCAGGCTATGGCGATTGACAGCGTAGAATGAAGG
DNA 2: CCTTCATTCTACGCTGTCAATCGCCATAGCCTGAATGACCCGGATGTAACCTACACATGC
As to B9, in the data set with PXR:RXRa, the binding signal is 3.72 PBM z-score against 500 random probes.

B10: NRC3_wobSeed137_DR5_T6C_o1 (dsDNA)
DNA 1: GCATACGTAGGTTACATCCGGGTCATTCAGGCTATGGCGATTGACAGCGTAGAATGAAGG
DNA 2: CCTTCATTCTACGCTGTCAATCGCCATAGCCTGAATGACCCGGATGTAACCTACGTATGC
Regarding B10, the binding signal in the data set with PXR:RXRa was 3.61 PBM z-score against 500 random probes.

B11: NRC3_wobSeed58_DR2_G23C_o1 (dsDNA)
DNA 1: GCATCGAAAGGTCGTGAGGTGACTATACAGAAAGGCGCGATTGACAGCGTAGAATGAAGG
DNA 2: CCTTCATTCTACGCTGTCAATCGCGCCTTTCTGTATAGTCACCTCACGACCTTTCGATGC
As to B11, the binding signal in the data set with PXR:RXRa was 3.52 PBM z-score against 500 random probes.

B12: NRC3_wobSeed61_DR2_T5C_o1 (dsDNA)
DNA 1: GCCGCCCAAGGTCAGCAGGTCAGTGAAAGCGACGTGGCGATTGACAGCGTAGAATGAAGG
DNA 2: CCTTCATTCTACGCTGTCAATCGCCACGTCGCTTTCACTGACCTGCTGACCTTGGGCGGC
On to B12, for which the binding signal in the data set with PXR:RXRa was 3.73 PBM z-score against 500 random probes.

B13: NRC3_wobSeed66_DR2_A17G_o1 (dsDNA)
DNA 1: GCAATACAGGGTCACTGGGCCAGAGTAGGTACGAATGCGATTGACAGCGTAGAATGAAGG
DNA 2: CCTTCATTCTACGCTGTCAATCGCATTCGTACCTACTCTGGCCCAGTGACCCTGTATTGC
B13: the binding signal with PXR:RXRa is 3.74 PBM z-score against 500 random probes.

B14: NRC3_wobSeed66_DR2_C15T_o1 (dsDNA)
DNA 1: GCAATACAGGGTCATTAGGCCAGAGTAGGTACGAATGCGATTGACAGCGTAGAATGAAGG
DNA 2: CCTTCATTCTACGCTGTCAATCGCATTCGTACCTACTCTGGCCTAATGACCCTGTATTGC
Consider B14, for which, in the data set with PXR:RXRa, the binding signal was 3.57 PBM z-score against 500 random probes.

B15: NRC3_wobSeed5_DR0_C4T_o1 (dsDNA)
DNA 1: GCCTTTACGGGTCAAGGTTATAGCACGGGTGGTACGGCGATTGACAGCGTAGAATGAAGG
DNA 2: CCTTCATTCTACGCTGTCAATCGCCGTACCACCCGTGCTATAACCTTGACCCGTAAAGGC
For B15, the binding signal with PXR:RXRa was 3.7 PBM z-score against 500 random probes.

B16: NRC3_wobSeed5_DR0_G9A_o1 (dsDNA)
DNA 1: GCCCTTACAGGTCAAGGTTATAGCACGGGTGGTACGGCGATTGACAGCGTAGAATGAAGG
DNA 2: CCTTCATTCTACGCTGTCAATCGCCGTACCACCCGTGCTATAACCTTGACCTGTAAGGGC
For the molecule B16, in the data set with PXR:RXRa, the binding signal was 3.62 PBM z-score against 500 random probes.

B17: NRC3_wobSeed5_DR0_T5G_o1 (dsDNA)
DNA 1: GCCCGTACGGGTCAAGGTTATAGCACGGGTGGTACGGCGATTGACAGCGTAGAATGAAGG
DNA 2: CCTTCATTCTACGCTGTCAATCGCCGTACCACCCGTGCTATAACCTTGACCCGTACGGGC
Take B17: the binding signal with PXR:RXRa is 3.48 PBM z-score against 500 random probes.

B18: NRC3_wobSeed5_DR0_A22C_o1 (dsDNA)
DNA 1: GCCCTTACGGGTCAAGGTTATCGCACGGGTGGTACGGCGATTGACAGCGTAGAATGAAGG
DNA 2: CCTTCATTCTACGCTGTCAATCGCCGTACCACCCGTGCGATAACCTTGACCCGTAAGGGC
On to B18, for which the binding signal with PXR:RXRa is 3.55 PBM z-score against 500 random probes.

B19: NRC3_wobSeed130_DR5_T29C_o1 (dsDNA)
DNA 1: GCCTCGAAAGGTCGTGCTCAGGTGAGTACACCAAACGCGATTGACAGCGTAGAATGAAGG
DNA 2: CCTTCATTCTACGCTGTCAATCGCGTTTGGTGTACTCACCTGAGCACGACCTTTCGAGGC
Turning to B19, the binding signal with PXR:RXRa was 3.76 PBM z-score against 500 random probes.

B20: NRC3_wobSeed82_DR3_G14A_o1 (dsDNA)
DNA 1: GCATCGAAAGGTCAACGAGGTGAGTATACACCGTTTGCGATTGACAGCGTAGAATGAAGG
DNA 2: CCTTCATTCTACGCTGTCAATCGCAAACGGTGTATACTCACCTCGTTGACCTTTCGATGC
With B20, the binding signal was 8.61 PBM z-score against 500 random probes with FXR:RXRa; 6.1 PBM z-score against 500 random probes in the data set with RARb:RXRa; 6.87 PBM z-score against 500 random probes with PPARa:RXRa; 6.3 PBM z-score against 500 random probes in the data set with LXRb:RXRa; 7.92 PBM z-score against 500 random probes in the data set with RARg:RXRa; 7.33 PBM z-score against 500 random probes with VDR:RXRa. The binding signal is 7.22 PBM z-score against 500 random probes with LXRa:RXRa and 8.25 PBM z-score against 500 random probes with RXRa.

B21: NRC3_wobSeed82_DR3_A15T_o1 (dsDNA)
DNA 1: GCATCGAAAGGTCGTCGAGGTGAGTATACACCGTTTGCGATTGACAGCGTAGAATGAAGG
DNA 2: CCTTCATTCTACGCTGTCAATCGCAAACGGTGTATACTCACCTCGACGACCTTTCGATGC
In the case of B21, the binding signal with PXR:RXRa is 3.66 PBM z-score against 500 random probes.

B22: NRC3_wobSeed106_DR4_G23C_o1 (dsDNA)
DNA 1: GCCTCGAAAGGTCGGTTGAGGTCAGTATACGGATAAGCGATTGACAGCGTAGAATGAAGG
DNA 2: CCTTCATTCTACGCTGTCAATCGCTTATCCGTATACTGACCTCAACCGACCTTTCGAGGC
With B22, the binding signal in the data set with PXR:RXRa was 6.52 PBM z-score against 500 random probes.

B23: NRC3_wobSeed113_DR4_T8G_o1 (dsDNA)
DNA 1: GCATATGGAGGTTAGCTGGGGTCATTCAGACTAGGCGCGATTGACAGCGTAGAATGAAGG
DNA 2: CCTTCATTCTACGCTGTCAATCGCGCCTAGTCTGAATGACCCCAGCTAACCTCCATATGC
As to B23, the binding signal with PXR:RXRa is 6.8 PBM z-score against 500 random probes.

B24: NRC3_wobSeed101_DR4_C18T_o1 (dsDNA)
DNA 1: GCCCTTACGGGTCACTCTAGGTTATAGCATCGGAGTGCGATTGACAGCGTAGAATGAAGG
DNA 2: CCTTCATTCTACGCTGTCAATCGCACTCCGATGCTATAACCTAGAGTGACCCGTAAGGGC
As for B24, in the data set with PXR:RXRa, the binding signal was 3.67 PBM z-score against 500 random probes.
